This data set deals with the molecule itself. Briefly: native gel or EMSA; 12% native PAGE in nonreducing condition (without SDS and β-mercaptoethanol), samples not boiled; monomer chain to dimer (the paper calls it disulfide linked). On the technique in general: In EMSA bound probe runs differently from free probe, usually more slowly.

B1: recombinant human Bone Morphogenetic Protein 2 (rhBMP2) monomer, from pHT43-BMP2-M (ligand, UniProt P12643 283-396, looked up)
chain: QAKHKQRKRLKSSCKRHPLYVDFSDVGWNDWIVAPPGYHAFYCHGECPFPLADHLNSTNHAIVQTLVNSVNSKIPKACCVPTELSAISMLYLDENEKVVLKNYQDMVVEGCGCR
notes: Bone Morphogenetic Protein 2, human, mature domain / mature peptide (~399 bp amplicon with sites and His-tag); RBMP2-M, translated, gives ...EGCGCR then GRG then HHHHHH and stop, so three residues (GRG) may lie between BMP2 and the His-tag; also called rhBMP (monomer); source: B. subtilis SCK6, secreted into the culture supernatant (pHT43, amyQ signal peptide); purified by FPLC (Resource Q)
As to B1, the “stoichiometry N” value stood at 2.

The stoichiometry N is the number of molecules, sites or subunits per partner or assembly.

(Values after paper PMC5733156, “Heterologous Secretory Expression and Characterization of Dimerized Bone Morphogenetic Protein 2 in Bacillus subtilis” (BioMed Research International, 2017).)
